Test results: the supplement of paper PMC10065799, “High-throughput profiling of sequence recognition by tyrosine kinases and SH2 domains using bacterial peptide display” (eLife, 2023)

Molecular target: FGFR1 (UniProt P11362)
Assay: phosphorylation enrichment, bacterial display (enrichment ratio); higher = better substrate or ligand; peptides without Tyr show the background
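Further: 11-residue human phosphosite peptides and single-mutation variants displayed on the E. coli surface, counted by deep sequencing, each peptide's frequency after selection divided by its frequency in the unselected input library; frequency after pTyr selection over input frequency; kinase dosed for 20-30% of maximal phosphorylation in three min.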

Chain of FGFR1 (P11362 whole entry, looked up): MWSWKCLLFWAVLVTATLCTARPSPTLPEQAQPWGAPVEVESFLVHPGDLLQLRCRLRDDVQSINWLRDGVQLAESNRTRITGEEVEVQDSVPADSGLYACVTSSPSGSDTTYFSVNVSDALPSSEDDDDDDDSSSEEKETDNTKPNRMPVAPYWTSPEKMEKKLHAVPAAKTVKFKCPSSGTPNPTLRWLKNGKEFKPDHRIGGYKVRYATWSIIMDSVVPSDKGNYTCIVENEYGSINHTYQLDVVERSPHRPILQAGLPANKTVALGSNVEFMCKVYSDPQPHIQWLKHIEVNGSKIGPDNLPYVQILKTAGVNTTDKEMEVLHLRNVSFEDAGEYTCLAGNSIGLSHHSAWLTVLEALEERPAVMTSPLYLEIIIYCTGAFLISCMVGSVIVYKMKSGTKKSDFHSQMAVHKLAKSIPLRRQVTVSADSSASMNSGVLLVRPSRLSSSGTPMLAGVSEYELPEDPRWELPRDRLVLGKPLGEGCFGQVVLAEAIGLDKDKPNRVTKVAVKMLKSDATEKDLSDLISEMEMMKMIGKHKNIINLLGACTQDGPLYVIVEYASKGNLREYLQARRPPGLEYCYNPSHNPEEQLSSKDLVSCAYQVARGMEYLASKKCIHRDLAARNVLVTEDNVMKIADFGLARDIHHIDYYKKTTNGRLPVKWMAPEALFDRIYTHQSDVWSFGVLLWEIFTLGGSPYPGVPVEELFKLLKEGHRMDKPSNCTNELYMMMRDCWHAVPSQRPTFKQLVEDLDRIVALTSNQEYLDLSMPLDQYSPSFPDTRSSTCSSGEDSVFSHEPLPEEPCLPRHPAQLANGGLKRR

In order of rising phosphorylation enrichment:
1. KRAIGHFSATS [FAM120A_Y327_Y327H_YF]  0.335
2. VHNLDYYKKTT [FGFR3_Y647]  0.369
3. NLTVNYKKNLT [SQOR_Y259_I264T]  0.376
4. SAGSSYSISGI [PAX5_Y179]  0.395
5. EKQLLYLENKT [FRK_Y132_S133L]  0.398
6. AKVKPYVNGTS [IBTK_Y1064]  0.421
7. SARFRYLVAEK [LDHB_Y173_M175V]  0.424
8. IRKDLYANNVM [ACTA1_Y296]  0.447
9. AAVDTYCRHNY [HLA-DRB1_Y107]  0.451
10. TGSFTYEAVEL [MTMR14_Y462]  0.466
11. NIQKKYYRAIL [CHD7_Y1217]  0.472
12. AGQEDYDRLRS [RHOA_Y66_P71S]  0.475
13. DMGAQYAAASP [ARID1B_Y483]  0.48
14. TVLWRYTGTRP [UGT1A1_Y337]  0.495
15. FQGGTYSKAST [FGG_Y380_YF]  0.495
16. VTAVAYRLAEQ [HK1_Y461]  0.495
17. ICGVSYDEFRF [CFTR_Y512_F508C_YF]  0.553
18. ATPSQYMTFLH [DYNC2H1_Y2872_R2871Q]  0.562
19. KLVQLYVVCTK [BTK_Y461_G462V]  0.565
20. MSFDRYMAICH [OR2A5_Y123_YF]  0.567
21. LDLSFYHTSSS [EMD_Y182_P183H_YF]  0.575
22. PLEGKYEWQEV [CDKN1B_Y74]  0.619
23. CEHRGHLYLAI [TEK_Y897_Y897H]  0.646
24. YIGVTYKNEED [PDGFRA_Y993]  0.71
25. CTTIDYNFMCN [TP53_Y234_H233D_YF]  0.882
26. LHAALYERKLL [TTLL5_Y542]  0.896
27. HLELNYKEDEF [MME_Y502_Y497H_YF]  1.08
28. SPPILYSFFLD [FCRL6_Y239_YF]  1.4
29. RPPELYALMSD [ZAP70_Y569_C564R]  1.44
30. WCSNDYLGMSR [ALAS2_Y199]  1.57
31. FNVLQYVVPEV [EIF3A_Y382]  2.06
32. DYYDLYGGQKF [PTPN11_Y66_E69Q]  15.9
33. PLFGEYFTLQI [TP53_Y327_D324Y_YF]  16.9

Molecular target: MERTK (UniProt Q12866)
Assay: as above

Chain of MERTK (Q12866 whole entry, looked up): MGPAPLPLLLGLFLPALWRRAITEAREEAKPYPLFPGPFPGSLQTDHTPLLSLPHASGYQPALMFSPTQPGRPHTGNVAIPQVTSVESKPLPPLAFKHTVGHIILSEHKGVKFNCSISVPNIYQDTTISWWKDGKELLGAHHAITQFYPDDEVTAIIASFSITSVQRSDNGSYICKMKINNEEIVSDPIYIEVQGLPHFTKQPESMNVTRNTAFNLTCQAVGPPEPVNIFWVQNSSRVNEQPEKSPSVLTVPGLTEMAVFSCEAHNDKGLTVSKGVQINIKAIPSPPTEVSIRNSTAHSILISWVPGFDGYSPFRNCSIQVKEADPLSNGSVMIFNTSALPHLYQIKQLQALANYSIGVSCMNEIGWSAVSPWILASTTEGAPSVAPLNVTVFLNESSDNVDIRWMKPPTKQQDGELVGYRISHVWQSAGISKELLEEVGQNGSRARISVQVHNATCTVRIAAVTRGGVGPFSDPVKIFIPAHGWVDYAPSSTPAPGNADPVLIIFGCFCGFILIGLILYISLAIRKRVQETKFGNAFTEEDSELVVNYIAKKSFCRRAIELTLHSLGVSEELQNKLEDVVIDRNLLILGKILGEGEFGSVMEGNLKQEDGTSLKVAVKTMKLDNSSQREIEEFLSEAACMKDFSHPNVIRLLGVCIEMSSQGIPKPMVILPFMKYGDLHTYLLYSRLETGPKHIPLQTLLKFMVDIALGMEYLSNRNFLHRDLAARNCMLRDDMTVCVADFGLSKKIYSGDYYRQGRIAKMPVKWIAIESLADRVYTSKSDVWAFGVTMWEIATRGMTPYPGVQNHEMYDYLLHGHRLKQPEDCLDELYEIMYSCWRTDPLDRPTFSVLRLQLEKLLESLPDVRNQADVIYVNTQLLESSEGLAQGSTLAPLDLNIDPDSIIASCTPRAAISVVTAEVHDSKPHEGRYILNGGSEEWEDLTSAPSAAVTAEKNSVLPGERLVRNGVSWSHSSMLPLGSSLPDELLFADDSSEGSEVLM

In order of falling phosphorylation enrichment:
1. RPPELYALMSD [ZAP70_Y569_C564R]  15.2
2. SPPILYSFFLD [FCRL6_Y239_YF]  9.91
3. DYYDLYGGQKF [PTPN11_Y66_E69Q]  5.66
4. FNVLQYVVPEV [EIF3A_Y382]  1.99
5. TGSFTYEAVEL [MTMR14_Y462]  1.87
6. PLFGEYFTLQI [TP53_Y327_D324Y_YF]  1.13
7. ATPSQYMTFLH [DYNC2H1_Y2872_R2871Q]  1.06
8. HLELNYKEDEF [MME_Y502_Y497H_YF]  0.589
9. ICGVSYDEFRF [CFTR_Y512_F508C_YF]  0.571
10. NLTVNYKKNLT [SQOR_Y259_I264T]  0.547
11. LHAALYERKLL [TTLL5_Y542]  0.544
12. CTTIDYNFMCN [TP53_Y234_H233D_YF]  0.529
13. MSFDRYMAICH [OR2A5_Y123_YF]  0.498
14. AAVDTYCRHNY [HLA-DRB1_Y107]  0.479
15. AGQEDYDRLRS [RHOA_Y66_P71S]  0.466
16. FQGGTYSKAST [FGG_Y380_YF]  0.46
17. PLEGKYEWQEV [CDKN1B_Y74]  0.452
18. KLVQLYVVCTK [BTK_Y461_G462V]  0.45
19. DMGAQYAAASP [ARID1B_Y483]  0.434
20. YIGVTYKNEED [PDGFRA_Y993]  0.433
21. SAGSSYSISGI [PAX5_Y179]  0.426
22. VHNLDYYKKTT [FGFR3_Y647]  0.414
23. LDLSFYHTSSS [EMD_Y182_P183H_YF]  0.414
24. IRKDLYANNVM [ACTA1_Y296]  0.413
25. WCSNDYLGMSR [ALAS2_Y199]  0.398
26. CEHRGHLYLAI [TEK_Y897_Y897H]  0.374
27. KRAIGHFSATS [FAM120A_Y327_Y327H_YF]  0.371
28. AKVKPYVNGTS [IBTK_Y1064]  0.357
29. VTAVAYRLAEQ [HK1_Y461]  0.349
30. NIQKKYYRAIL [CHD7_Y1217]  0.345
31. EKQLLYLENKT [FRK_Y132_S133L]  0.337
32. SARFRYLVAEK [LDHB_Y173_M175V]  0.327
33. TVLWRYTGTRP [UGT1A1_Y337]  0.317

Molecular target: Jak2 (UniProt O60674)
Assay: as above

Chain of Jak2 (O60674 whole entry, looked up): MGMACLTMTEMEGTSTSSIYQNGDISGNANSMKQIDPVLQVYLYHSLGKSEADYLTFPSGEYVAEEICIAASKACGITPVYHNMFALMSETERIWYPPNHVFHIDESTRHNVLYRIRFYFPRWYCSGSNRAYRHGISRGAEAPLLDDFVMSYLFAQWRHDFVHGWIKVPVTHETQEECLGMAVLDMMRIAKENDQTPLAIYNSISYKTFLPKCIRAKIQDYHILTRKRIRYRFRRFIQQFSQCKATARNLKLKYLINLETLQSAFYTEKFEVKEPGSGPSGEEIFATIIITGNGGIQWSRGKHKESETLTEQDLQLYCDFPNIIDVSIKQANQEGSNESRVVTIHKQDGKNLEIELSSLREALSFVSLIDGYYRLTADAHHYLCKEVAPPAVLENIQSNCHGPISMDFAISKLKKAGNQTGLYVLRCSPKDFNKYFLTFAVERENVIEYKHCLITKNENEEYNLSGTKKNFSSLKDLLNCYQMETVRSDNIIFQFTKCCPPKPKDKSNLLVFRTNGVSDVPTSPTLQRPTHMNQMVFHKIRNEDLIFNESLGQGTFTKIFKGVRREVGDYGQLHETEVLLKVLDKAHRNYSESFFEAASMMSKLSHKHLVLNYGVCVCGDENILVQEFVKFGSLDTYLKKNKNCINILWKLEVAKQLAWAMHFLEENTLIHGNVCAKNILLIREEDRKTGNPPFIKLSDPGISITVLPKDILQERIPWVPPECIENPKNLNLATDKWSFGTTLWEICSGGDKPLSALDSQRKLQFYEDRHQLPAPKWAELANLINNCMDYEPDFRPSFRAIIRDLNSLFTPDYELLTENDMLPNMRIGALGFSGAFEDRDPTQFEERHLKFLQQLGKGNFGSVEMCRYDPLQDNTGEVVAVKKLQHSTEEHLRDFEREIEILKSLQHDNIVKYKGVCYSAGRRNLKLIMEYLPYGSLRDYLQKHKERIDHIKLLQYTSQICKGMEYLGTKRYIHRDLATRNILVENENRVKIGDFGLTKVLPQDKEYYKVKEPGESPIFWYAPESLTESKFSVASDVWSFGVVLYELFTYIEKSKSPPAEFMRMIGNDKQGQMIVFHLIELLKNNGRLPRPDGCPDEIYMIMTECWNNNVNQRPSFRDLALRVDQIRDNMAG

In order of falling phosphorylation enrichment:
1. PLFGEYFTLQI [TP53_Y327_D324Y_YF]  12.9
2. DYYDLYGGQKF [PTPN11_Y66_E69Q]  5.14
3. WCSNDYLGMSR [ALAS2_Y199]  3.41
4. RPPELYALMSD [ZAP70_Y569_C564R]  2.28
5. FNVLQYVVPEV [EIF3A_Y382]  1.55
6. TGSFTYEAVEL [MTMR14_Y462]  1.31
7. ICGVSYDEFRF [CFTR_Y512_F508C_YF]  1.21
8. CTTIDYNFMCN [TP53_Y234_H233D_YF]  1.21
9. KLVQLYVVCTK [BTK_Y461_G462V]  1.2
10. SPPILYSFFLD [FCRL6_Y239_YF]  1.18
11. PLEGKYEWQEV [CDKN1B_Y74]  1.11
12. NLTVNYKKNLT [SQOR_Y259_I264T]  1.05
13. AGQEDYDRLRS [RHOA_Y66_P71S]  1.05
14. LHAALYERKLL [TTLL5_Y542]  1.04
15. LDLSFYHTSSS [EMD_Y182_P183H_YF]  1.04
16. ATPSQYMTFLH [DYNC2H1_Y2872_R2871Q]  0.99
17. YIGVTYKNEED [PDGFRA_Y993]  0.961
18. AAVDTYCRHNY [HLA-DRB1_Y107]  0.911
19. HLELNYKEDEF [MME_Y502_Y497H_YF]  0.903
20. MSFDRYMAICH [OR2A5_Y123_YF]  0.878
21. CEHRGHLYLAI [TEK_Y897_Y897H]  0.833
22. TVLWRYTGTRP [UGT1A1_Y337]  0.779
23. IRKDLYANNVM [ACTA1_Y296]  0.772
24. EKQLLYLENKT [FRK_Y132_S133L]  0.672
25. DMGAQYAAASP [ARID1B_Y483]  0.653
26. SARFRYLVAEK [LDHB_Y173_M175V]  0.607
27. AKVKPYVNGTS [IBTK_Y1064]  0.58
28. SAGSSYSISGI [PAX5_Y179]  0.559
29. VTAVAYRLAEQ [HK1_Y461]  0.543
30. NIQKKYYRAIL [CHD7_Y1217]  0.494
31. FQGGTYSKAST [FGG_Y380_YF]  0.478
32. VHNLDYYKKTT [FGFR3_Y647]  0.469
33. KRAIGHFSATS [FAM120A_Y327_Y327H_YF]  0.456

Molecular target: FGFR3 (UniProt P22607)
Assay: as above

Chain of FGFR3 (P22607 whole entry, looked up): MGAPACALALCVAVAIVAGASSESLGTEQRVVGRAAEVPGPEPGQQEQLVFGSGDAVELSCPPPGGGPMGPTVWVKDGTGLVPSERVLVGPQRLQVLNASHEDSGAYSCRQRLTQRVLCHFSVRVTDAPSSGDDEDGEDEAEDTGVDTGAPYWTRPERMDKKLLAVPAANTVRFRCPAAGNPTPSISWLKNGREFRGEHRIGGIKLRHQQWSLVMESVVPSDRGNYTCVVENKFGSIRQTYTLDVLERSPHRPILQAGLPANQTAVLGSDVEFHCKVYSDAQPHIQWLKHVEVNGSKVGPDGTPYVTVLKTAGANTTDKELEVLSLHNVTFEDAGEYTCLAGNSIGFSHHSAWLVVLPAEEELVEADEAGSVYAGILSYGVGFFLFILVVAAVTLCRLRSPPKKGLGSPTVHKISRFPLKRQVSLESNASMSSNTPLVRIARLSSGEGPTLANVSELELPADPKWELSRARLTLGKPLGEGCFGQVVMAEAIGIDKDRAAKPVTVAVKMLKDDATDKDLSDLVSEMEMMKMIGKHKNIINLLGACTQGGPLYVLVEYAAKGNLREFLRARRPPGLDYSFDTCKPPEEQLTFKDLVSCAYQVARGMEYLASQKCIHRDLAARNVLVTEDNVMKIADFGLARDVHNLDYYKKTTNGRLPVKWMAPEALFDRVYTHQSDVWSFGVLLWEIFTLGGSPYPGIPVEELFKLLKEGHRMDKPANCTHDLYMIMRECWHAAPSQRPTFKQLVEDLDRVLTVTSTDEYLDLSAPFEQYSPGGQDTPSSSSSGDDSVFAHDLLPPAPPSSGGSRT

In order of rising phosphorylation enrichment:
1. KRAIGHFSATS [FAM120A_Y327_Y327H_YF]  0.39
2. FQGGTYSKAST [FGG_Y380_YF]  0.413
3. SARFRYLVAEK [LDHB_Y173_M175V]  0.425
4. SAGSSYSISGI [PAX5_Y179]  0.438
5. AKVKPYVNGTS [IBTK_Y1064]  0.47
6. AAVDTYCRHNY [HLA-DRB1_Y107]  0.571
7. DMGAQYAAASP [ARID1B_Y483]  0.584
8. VTAVAYRLAEQ [HK1_Y461]  0.584
9. IRKDLYANNVM [ACTA1_Y296]  0.588
10. EKQLLYLENKT [FRK_Y132_S133L]  0.589
11. NIQKKYYRAIL [CHD7_Y1217]  0.595
12. TVLWRYTGTRP [UGT1A1_Y337]  0.606
13. NLTVNYKKNLT [SQOR_Y259_I264T]  0.615
14. AGQEDYDRLRS [RHOA_Y66_P71S]  0.639
15. ATPSQYMTFLH [DYNC2H1_Y2872_R2871Q]  0.651
16. MSFDRYMAICH [OR2A5_Y123_YF]  0.68
17. TGSFTYEAVEL [MTMR14_Y462]  0.711
18. CEHRGHLYLAI [TEK_Y897_Y897H]  0.722
19. PLEGKYEWQEV [CDKN1B_Y74]  0.743
20. VHNLDYYKKTT [FGFR3_Y647]  0.771
21. KLVQLYVVCTK [BTK_Y461_G462V]  0.785
22. YIGVTYKNEED [PDGFRA_Y993]  0.822
23. LDLSFYHTSSS [EMD_Y182_P183H_YF]  0.903
24. CTTIDYNFMCN [TP53_Y234_H233D_YF]  0.911
25. ICGVSYDEFRF [CFTR_Y512_F508C_YF]  0.967
26. LHAALYERKLL [TTLL5_Y542]  1.13
27. WCSNDYLGMSR [ALAS2_Y199]  1.25
28. RPPELYALMSD [ZAP70_Y569_C564R]  1.36
29. SPPILYSFFLD [FCRL6_Y239_YF]  1.38
30. HLELNYKEDEF [MME_Y502_Y497H_YF]  1.48
31. FNVLQYVVPEV [EIF3A_Y382]  1.85
32. PLFGEYFTLQI [TP53_Y327_D324Y_YF]  12.5
33. DYYDLYGGQKF [PTPN11_Y66_E69Q]  13.5
